Results on 20 molecules are retold here after patent publication US20070185311A1 (EPIX MEDICAL INC A DELAWARE, published 2007).

For orientation: Kd means the constant that tells how readily two partners part at equilibrium.

The test concerns the target DD(E) fragment of fibrin. The test can be described thus: affinity to DD(E) fragment of fibrin.

Starred links: 1 amine or outer side, 2 acyl side, 3 side chain; linkers in the order of their positions; H or OH if unused. Positions of bridges follow the written chain, without caps; N, C: chain ends. Non-standard residues stand in square brackets, D forms with d. No end group written: not given here. Phe(4-OMe) = COc1ccc(C[C@H](N[*:1])C(=O)[*:2])cc1; Phe(F5) = N[C@@H](Cc1c(F)c(F)c(F)c(F)c1F)C(=O)O; Bpa = N[C@@H](Cc1ccc(C(=O)c2ccccc2)cc1)C(=O)O; Tyr(3-Cl) = N[C@@H](Cc1ccc(O)c(Cl)c1)C(=O)O; Tyr(3-F) = N[C@@H](Cc1ccc(O)c(F)c1)C(=O)O; Tyr(3-I) = N[C@@H](Cc1ccc(O)c(I)c1)C(=O)O; Phe(3-Me) = Cc1cccc(C[C@H](N)C(=O)O)c1; Hyp = O=C(O)[C@@H]1C[C@@H](O)CN1; 4Pal = N[C@@H](Cc1ccncc1)C(=O)O; Phg = N[C@H](C(=O)O)c1ccccc1; Ad = adenosine base unit

With FHCPYDLCHIL (disulfide 3-8 (inferred)) [F-H-C-P-Y-D-L-C-H-I-L], the Kd is under 300 nM. For FHC[Hyp][Tyr(3-I)]DLCH[Phg] (disulfide 3-8 (inferred)) [F-H-C-Hyp-Y(3-I)-D-L-C-H-Phg] the value was under 200 nM. As for FHCP[Tyr(3-Cl)]DLCHIL (disulfide 3-8 (inferred)) [F-H-C-P-Y(3-Cl)-D-L-C-H-I-L], the Kd was under 200 nM. For the molecule FHC[Hyp][Tyr(3-I)]DLCH[Phe(3-Me)] (disulfide 3-8 (inferred)) [F-H-C-Hyp-Y(3-I)-D-L-C-H-F(3-Me)], the Kd was under 200 nM. As to FHC[Hyp][Tyr(3-I)]DLC[Bpa]I (disulfide 3-8 (inferred)) [F-H-C-Hyp-Y(3-I)-D-L-C-Bpa-I], the Kd was under 400 nM. The value for [Phe(F5)]HC[Hyp][Tyr(3-I)]DLCHI (disulfide 3-8 (inferred)) [F(F5)-H-C-Hyp-Y(3-I)-D-L-C-H-I] was under 100 nM; that for YEC[Hyp][Tyr(3-Cl)]GLCWIQ (disulfide 3-8 (inferred)) [Y-E-C-Hyp-Y(3-Cl)-G-L-C-W-I-Q] was under 300 nM; that for FHC[Hyp][Tyr(3-I)]DLC[4Pal]I (disulfide 3-8 (inferred)) [F-H-C-Hyp-Y(3-I)-D-L-C-4Pal-I] was under 200 nM.

[Tyr(26-Me)]HC[Hyp][Tyr(3-I)]DLCHI (disulfide 3-8 (inferred)) [Y(26-Me)-H-C-Hyp-Y(3-I)-D-L-C-H-I]: the Kd is under 200 nM. With [Phe(4-OMe)]HC[Hyp]YDLCHIL (disulfide 3-8 (inferred)) [F(4-OMe)-H-C-Hyp-Y-D-L-C-H-I-L], the Kd was under 400 nM.

The molecule [Phe(4-OMe)]HC[Hyp][Tyr(3-I)]DLCHIL (disulfide 3-8 (inferred)) [F(4-OMe)-H-C-Hyp-Y(3-I)-D-L-C-H-I-L] came in with a Kd of under 100 nM. FHC[Hyp][Tyr(3-I)]DLCH[nVal] (disulfide 3-8 (inferred)) [F-H-C-Hyp-Y(3-I)-D-L-C-H-nVal] returned a Kd of under 200 nM.

Regarding [Ad]HC[Hyp][Tyr(3-I)]DLCHI (disulfide 3-8 (inferred)) [Ad-H-C-Hyp-Y(3-I)-D-L-C-H-I], the Kd is under 400 nM.

As for Y[dE]C[Hyp][Tyr(3-Cl)]GLCWIQ (disulfide 3-8 (inferred)) [Y-(D-E)-C-Hyp-Y(3-Cl)-G-L-C-W-I-Q], the Kd is under 100 nM. The value for [Tyr(3-Cl)]HC[Hyp][Tyr(3-I)]DLCHI (disulfide 3-8 (inferred)) [Y(3-Cl)-H-C-Hyp-Y(3-I)-D-L-C-H-I] was under 100 nM; that for FHC[Hyp][Tyr(3-F)]DLCHIL (disulfide 3-8 (inferred)) [F-H-C-Hyp-Y(3-F)-D-L-C-H-I-L] was under 100 nM; that for FHC[Hyp]YDLCH[Bpa] (disulfide 3-8 (inferred)) [F-H-C-Hyp-Y-D-L-C-H-Bpa] was under 300 nM. F[dE]C[Hyp][Tyr(3-Cl)]GLCWIQ (disulfide 3-8 (inferred)) [F-(D-E)-C-Hyp-Y(3-Cl)-G-L-C-W-I-Q] showed a Kd of under 300 nM. WECPYGLCWIQ (disulfide 3-8 (inferred)) [W-E-C-P-Y-G-L-C-W-I-Q] gave a Kd of under 200 nM.

Turning to [dF][dE]C[Hyp][Tyr(3-Cl)]GLCWIQ (disulfide 3-8 (inferred)) [(D-F)-(D-E)-C-Hyp-Y(3-Cl)-G-L-C-W-I-Q], the Kd is under 200 nM.
